Measured values taken from a protein production outcome set (Wang et al. 2014).

Assay: label from the status in PepcDB records

Sequence | protein production
MNPSDRKDAVNPFGKLTFLVVDDFENFRLSMRQMLRSCGADKIELVAHATPAIQYCTYNHVDVVLCDYNLGEGKNGQHVLEELRHKKLLKRSSLFLMVTAETSKEMVMGAREYQPDGYLTKPINRAMLEQRLGSLIKQRNALLPITREIDRENYPEAISLCLQTLPKQPRYKTWLMKTLGELYFMVGDLAHAQKVYDDVLNQRELSWARLGRCKVLLANRNFDQAVDGLKALIEKHPDYMEAYDLLAEGLQKQGRSAQAQQVLEKAAEHSPNALLRQKHLAELAGANQDIDTASQAWRQTVSLGTYSIHDNAEHYLSLAQSLSDLSEGDLDEEGAARSSEALSVLTKMEKRFDNDETIGLKSRIVQCRLHAGQGRHREAEKILTAVSSELESLEELPADMGLDFAKTLFRMGREDQAKRILGDLASRFDNDPDTLQKIENLLDEPVGFRQKLEARSMNRDGIKAFEAGDLDAAVEAFNKALAIVPDHAALNLNLVQVLMKQYDQNPEPALLAACQQRLDHLNKLPEQHRQHRRYLALTRKLKGLTA | failed
MQIKAGLIWMNGAFVPQEEAKTSVLSHALHYGTSVFEGIRAYETAKGPAIFRLKEHVKRFYNSAKVLRMEIPFAPEELEEAIKEVVRRNGYRSCYIRPLAWMGAKALGVNPLPNNPAEVMVAAWEWGAYLGEEAVRKGARLITSSWARFPANVMPGKAKVGGNYVNSALAKMEAVAAGADEALLLDEEGYVAEGSGENLFFVRDGVIYALEHSVNLEGITRDSVIRIAKDLGYEVQVVRATRDQLYMADEVFMTGTAAEVTPVSMIDWRPIGKGTAGPVALRLREVYLEAVTGRRPEYEGWLTYVNGQ | not failed
MIIPMNNKHPLPTPLVSIIIPVYNVEKYLYRCVKSILSQDYYDYEIILVDDGSTDGSGMICDELTEQHGHISVIHKPNGGQGSARNAGLNHAKGKYIWFIDSDDYISPHSLSVIMSQITQGDFDALFFPYIKSNGNILIGEAVGKYHAGVYRGQQLLLEGLVNMSMCTIVSLRSRWIDNRIFFREDIHFEDFEINPRVLKFLERAIFLDSNIIPYIYYTRLGSTMNQLDPQKRMRQTEDFLRIEKSWKEWFNLDSPEPNSYDMLMLRTGTNMLHRNLLNFVRNSNFSISTKLKLYAQYRKKGVFSWFYNGYRRDPYVGCTSVRVFWNTIGRSYILFSLFSIVEEIWKKIRK | failed
MLIVSGCSSSQNNNGSGKSESKDSRVIHDEEGKTTVSGTPKRVVVLELSFLDAVHNLGITPVGIADDNKKDMIKKLVGSSIDYTSVGTRSEPNLEVISSLKPDLIIADAERHKNIYKQLKKIAPTIELKSREATYDETIDSFTTIAKALNKEDEGKEKLAEHKKVINDLKAELPKDENRNIVLGVARADSFQLHTSSSYDGEIFKMLGFTHAVKSDNAYQEVSLEQLSKIDPDILFISANEGKTIVDEWKTNPLWKNLKAVKNGQVYDADRDTWTRFRGIKSSETSAKDVLKKVYNK | failed
MKKIIAITGFAMLGGGLREGLSLLVTWPQHFWITCLINIVGAFVLSLITNLLPARLPVSEDIVIGMSVGFVGSFTTFSTFTFETLQSFQSGHSVLALSYVAASLGLGLLAGLAGNFLSTYWLPKEEF | failed
MTKGSRKSRRRQQAPTKARPEQGRSAPAQRPAPTFRLRTAALLAIGSGALFFLLASGLSWFKTSEISSPPTREAELSFVGSQACSGCHQAETRLWQSSQHRHAMDHATDTSVRGDFNDAAFEYAGTRSRFFRKDRKFLIETDGPDGKLATFEVKYAFGVDPLQQYLIEFPDGRIQALSIAWDTRPKDQGGQRWFHLYPDAAVTSSDPLHWTRLNQNWNFMCAECHSTNVHKNYDAARDRFATSFSEISVGCEACHGAGSRHVSWAQQKPAARGPDNGLLVRFDERSGITWSADAETMTPKRSAPPATLRKEVEVCGRCHARRGQFSEDWRPGKSLSETHRVSLLDRQSFHADGQMRDDEETYNYASFKQSKMFAKGVTCSDCHDPHSAALKAPGDGVCAQCHAPAKYEAAAHRQHANVSPPPGCASCHMPERRYMVVDRRHDHGFRIPRPDLSVQLGTPNACNDCHRDKPAAWAARQVETWFGPQRLGFQAYARAFHAAWSEAADAQALLSAVVANDAPGIVRAGALAELPAPDADLIRRALSDPDPLVRLGALDALEGIPADQLWTLASAQLTDPVRGVRIRAAELLASVPPSRQPAADRNKFTQAAAEFVAAQKLNADRPDARAALGNFLARQAGAAEAEAEYRAALRLDPSFPPAAINLSDLYRQLGRDSDGERILRETLTKSGQNASLHHALGLVLVREKRADEALGELRQAAELDPGQPRYAYVYAVGLHSSGRRDDALAVLRTSLQVHPNDRESVSAALALSREKGDSASALGYAEQLSRLMPGNREIEDLIKQLKQ | failed
MGRTVVVLGGGISGLAASYHLSRAPCPPKVVLVESSERLGGWIRSVRGPNGAIFELGPRGIRPAGALGARTLLLVSELGLDSEVLPVRGDHPAAQNRFLYVGGALHALPTGLRGLLRPSPPFSKPLFWAGLRELTKPRGKEPDETVHSFAQRRLGPEVASLAMDSLCRGVFAGNSRELSIRSCFPSLFQAEQTHRSILLGLLLGAGRTPQPDSALIRQALAERWSQWSLRGGLEMLPQALETHLTSRGVSVLRGQPVCGLSLQAEGRWKVSLRDSSLEADHVISAIPASVLSELLPAEAAPLARALSAITAVSVAVVNLQYQGAHLPVQGFGHLVPSSEDPGVLGIVYDSVAFPEQDGSPPGLRVTVMLGGSWLQTLEASGCVLSQELFQQRAQEAAATQLGLKEMPSHCLVHLHKNCIPQYTLGHWQKLESARQFLTAHRLPLTLAGASYEGVAVNDCIESGRQAAVSVLGTEPNS | failed
MKNIIACIDGSPTTFATCEASAWVASKINAPLILLHALDKTMRPVVSEFSGQIGLGSQEELLNELAELDEARSKVALKHGKKLLEEATEWVIKKGLTNVEQLQRHGSLLESLIDLENQLRVLVIGKLGEDQSSNKTIGSQLESIIRSIKSHTLVVT | failed
QRLSNSIINSLASGEGVVEALRTMKNDGVISGMFKLEQGKFNRSIENLVRTEYSHFAVEGVRKSLKDIGVKQTQSWSAEDERVCSICGGRHGKEIKDDWHPPYHGRCRCTEI | failed
MADMSDAPLVVQSDRTILLEVDNPLYPEARDALARFAELVKSPEHIHTYRLTPLSLWNAAAGGLDAATIIQVLADYSKYPLPANVVADIREYVGRYGKVKLVARGTGLRLVTADPGIAAEISNNKRIQPYIKERQDACTLAIDPWQRGPVKQALIKIGYPVEDLAGYIPGAPLPFSLRERTLNGETFSLRPYQAEAARVFYAGGSSRGGSGVIVLPCGAGKTVVGIAAMALCQCYTLILVTSVTAARQWLAEIRDKTDLPPEMLGEYTGEKKEIKPVTVATYQIITHRRRRNEDYPNFQLFNQQDWGLIIYDEVHLLPAPIFRITAELQARRRLGLTATLIREDGHEDDVFSLIGPKKYDLPWKQLEAQGWIAKATCYEVRLNLPPEMRLDYASAGERDKYRIAATNPVKEAVVENIIKRHEGEQVLVIGQYLEQLERLARRLGVPMITGQTSNRERERLYQAFREGTLKCLVVSKVANFAIDLPEASVAVQVSGAFGSRQEEAQRLGRILRPKKGGLPASFYTLVTRETVEQEFAVHRQLFLTEQGYRYVIIGPDLEQEGDKVYPLKTPTGSEPAVGAVIKQENLDGKVIDLMAWRQKAGR | failed
IQNNEATLRCIVENLPIFFGMRTINFSNWYYINPSFESLTGYTPDEMYEDPLLWQKIHREEYAENLEQARPNLGEWTIFSMEKKDGTQIWAQTVEFLVDDLSDTARVVVFGQDITDIKRAEIETLRSLVKERELNEAKSQFVDIVSHEFRTPLTSIIGF | failed
MKNVLYICIGALLAVLAFSSCNDGIDIRQDYDFSLSSWYLQKQIATGETVEIRFYLDREGDYEKAEYEIGYIQMEGKGEVSDCEGVKLVNREVKPLAEVPGLDTENPVKQVFTLFYRSTSARRSELKFFVRDNFGQEREMTVTFDTESGTTEE | failed
KALGSKEIPKGAENCLEGLIFVITGVLESIERDEAKSLIERYGGKVTGNVSKKTNYLVMGRDSGQSKSDKAAALGTKIIDEDGLLNLIRTMPGKKSKYEIAVETE | not failed
MDKQQRGIQVIRIWLGVTMLIHGVMKVTSLEDTLAFFASIGLPSLFVYGVAAIELIGGLFMIIGFLIPLVSVGFIAVLVGAIFSFGLASGFSGYEYELFLAITSLAILVSYADKKYLTLKLYF | failed
SLKKNPRDIVTKKANIRIKTALSKMFNAMAKVTYDIDEADGDVIVNTAFIDKKYLDEAFDILKEAYKKGLGISDRFGIVEENDRIKIQTICAVTLDGIFLRNSVPLIPKYGGILEITEDKERFIDIIGYDGSSLDPHEVFFNFVDCEKTFLAGFREVHRVAREKLEEVLKKLNWNGIKAIGEPNNELYGIGVNKDMCGVVTMGGINPLVLLKENEIPIELKAMHEVVRFSDLKSYKEI | not failed
SPFDTGPELESQIRNQYGVDVHVVPVLDTLNEAETLDRVAMQAARTIGPLVDSNAIIGVAWGATLSAVSRHLTRKMTHDSIVVQLNGAGNMQTTGITYASDIMRRFGSAYGARVEQFPVPAFFDHASTKTAMWNERSVQRILDLQARMSIAIFGVGSVDSDYPSHVYAGGYLDEHDLTMLAADDVVGDVATVFFRSDGSSDGITLNERSTGPSHEQLRQVRRRICVVSGASKINGLQGALAAGLATDLILDEASARRLVSFNGH | not failed
MSLKYLGVYVMEVQKNSSFKNKLQIGDTVLGANGHRFHSTEEMMTYLRKQKINSKVTISVLRGKEKLEHHHHHH | failed
MVLPSGLALPPLEYTVALLAGTLVVTALLYALEPPINQRTVVALTPWMALGGALHAFHQPPIEAYRPVVTPLFGAPAVYLTTFVTLGVVWVTLTLFSVRRGHSETISRNLGYIGIGLLTVLLVIAVVMALESGLLGLIWPTIAVIVATVVTAVTVLAVALWRTPVVVRMRYAAPTVVFAHMLDGVSTAVGADVIGITERTPIPARIMEFAGTLPTAPYLGKGWLFVFVKLLVAIGVVFLLDDYLEEDPVEASLLLAVVTAVGIGPATNNIVLFLFSPV | failed
MIHWRNCLASAVPKLAVIAHDLIQVWVCWVALHAARYSMLVHPPGLPYVDWRTLVVLIAQAVVFWRVGLYRGLWRFASVPDLWNIFKSAFSGLIVIVLVLSVTRFEGVPLSVLVVYPFALSVLLGMPRLLYRAWKDYQLIHPVDSSERVLILGAGRTAEALVRDMRRTGAFVPVGFIDDAVYLRGAKIQGLNVLGRLEEVSTIARETAAKLLVIAIPSLDAAGMQRVVAMCESTGLPFRMVPKLIDVLEGRTLPCQLKEVSIEDLLNRKPVIPDWRLIRSWLSGKTVMVTGGGGSIGSEVCRQCARHGASRVVIVEIDELALLTIHSDLRRLFPDIEVLPILGDCGDAAVIAHALRCVRPDAVFHAAAYKQVPLLEEQLREAVRNNVLATENVARHCVAAKIQTFVFISTDKAVEPVNVLGATKRYAEMVCQSFDAKSTGTRFVTVRFGNVLDSAGSVVPLFREQIRQGGPVTVTHPDVTRYFMTISEACQLILQAAALASHGAIYTLDMGEPVRINLLAEQMIRLAGKQPGRDIVIVYTGLRPGEKMHETLFYADENYRPTAHPNILEADVRTFPQEQVLQSVMRLREAVQHYDTVEIESVISMLMPDFHAARHKKETRFETVVPFPAREVRRL | failed
